Assay results reported in paper PMC5383425, “Differential CLE peptide perception by plant receptors implicated from structural and functional analyses of TDIF-TDR interactions” (PLoS ONE, 2017).
Numbering of substitutions follows the chain as printed. Square brackets hold non-standard residues; d marks the D form. Ends that are not written are not given here. Hyp = O=C(O)[C@@H]1C[C@@H](O)CN1

Columns and labels:
Assay in all cases: ITC; 0.5–1 mM peptide titrated into 10–40 μM ecdTDR; 25°C; 10 mM sodium citrate, 100 mM NaCl, pH 5.5; fitted to one set of binding sites; MicroCal Auto-iTC200
Conditions in all cases: both partners purified
[1] = target: T1, ecdTDR F161A mutant (Arabidopsis thaliana, UniProt Q9FII5 30-642, F161A)
T1 construct: TDR/PXY of A. thaliana, extracellular domain, residues 30-642; source: High Five insect cells (baculovirus), secreted, purified as the wild type (Ni-NTA, size-exclusion chromatography)
T1 sequence (looked up): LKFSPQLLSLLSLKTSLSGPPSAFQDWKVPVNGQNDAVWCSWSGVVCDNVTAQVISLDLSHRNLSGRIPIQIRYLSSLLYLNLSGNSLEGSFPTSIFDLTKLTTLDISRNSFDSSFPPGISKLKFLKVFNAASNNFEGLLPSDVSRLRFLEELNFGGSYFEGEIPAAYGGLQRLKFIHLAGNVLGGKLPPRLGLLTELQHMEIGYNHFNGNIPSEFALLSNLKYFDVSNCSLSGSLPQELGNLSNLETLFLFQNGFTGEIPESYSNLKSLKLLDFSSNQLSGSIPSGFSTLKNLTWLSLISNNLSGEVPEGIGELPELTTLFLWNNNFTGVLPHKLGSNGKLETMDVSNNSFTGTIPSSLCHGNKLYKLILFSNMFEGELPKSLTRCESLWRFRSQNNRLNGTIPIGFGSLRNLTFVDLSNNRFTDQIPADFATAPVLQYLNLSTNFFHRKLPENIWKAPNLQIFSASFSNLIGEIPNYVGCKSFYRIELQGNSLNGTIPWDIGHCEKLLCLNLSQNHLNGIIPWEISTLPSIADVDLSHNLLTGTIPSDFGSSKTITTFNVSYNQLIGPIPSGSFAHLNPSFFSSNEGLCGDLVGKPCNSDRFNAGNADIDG

[2] = target: T2, ecdTDR S162A mutant (Arabidopsis thaliana, UniProt Q9FII5 30-642, S162A)
T2 construct: TDR/PXY of A. thaliana, extracellular domain, residues 30-642; source: High Five insect cells (baculovirus), secreted, purified as the wild type (Ni-NTA, size-exclusion chromatography)
T2 sequence (looked up): T1 sequence (looked up) with A132F, S133A

[3] = target: T3, ecdTDR F279/F281 double alanine mutant (Arabidopsis thaliana, UniProt Q9FII5 30-642, F279 to alanine | F281 to alanine)
T3 construct: TDR/PXY of A. thaliana, extracellular domain, residues 30-642; also called F279A/F281A; source: High Five insect cells (baculovirus), secreted, purified as the wild type (Ni-NTA, size-exclusion chromatography)
T3 sequence (looked up): T1 sequence (looked up) with A132F, F250A, F252A

[4] = target: T4, ecdTDR Q282A mutant (Arabidopsis thaliana, UniProt Q9FII5 30-642, Q282A)
T4 construct: TDR/PXY of A. thaliana, extracellular domain, residues 30-642; source: High Five insect cells (baculovirus), secreted, purified as the wild type (Ni-NTA, size-exclusion chromatography)
T4 sequence (looked up): T1 sequence (looked up) with A132F, Q253A

B1: Tracheary Element Differentiation Inhibitory Factor (TDIF) peptide (peptide)
peptide: HEV[Hyp]SG[Hyp]NPISN
notes: TDIF, the 12-residue CLE peptide processed from CLE41 and CLE44 of A. thaliana; printed as HEV(Hyp)SG(Hyp)NPISN; numbers count on: the 12-residue peptide; CLE44 encodes the same peptide; also called wild type TDIF; wtTDIF; source: synthetic peptide (peptide 2.0)
B1 was tested, and the binding result [1] was “binds”, the binding result [2] was “binds” and the “fold decrease in binding against wild-type ecdTDR” value [3] was 8.6 fold. B1: binds [4].
